Data published in patent US20190359693A1 (Janssen / Centocor, published 2019).
Where two headings read alike, the source gives them in different places.

Experiments:
HA of H3N2 A/HK/1/68 [1] = target: T1, HA of H3N2 A/HK/1/68 (influenza A virus, UniProt Q91MA7 17-530); assay: BLI (Octet)
[2] = target: HA of H5N1 A/Vietnam/1194/04 (influenza A virus); assay: cell-based or functional assay
[3] = target: HA of H3N2 A/Brisbane/10/2007 (influenza A virus); assay: cell-based or functional assay
HA of H3N2 A/HK/1/68-MA [4] = target: HA of H3N2 A/HK/1/68-MA (influenza A virus); assay: cell-based or functional assay
[5] = target: HA of H3N2 A/Panama/2007/99 (influenza A virus); assay: cell-based or functional assay
[6] = target: HA of H4 A/WF/HK/MPA892/06 (influenza A virus); assay: cell-based or functional assay
HA of H7N7 A/PR8 H7N7-NY [7] = target: HA of H7N7 A/PR8 H7N7-NY (influenza A virus); assay: cell-based or functional assay
[8] = target: HA of H10N7 A/Chick/Germany/N/49 (influenza A virus); assay: cell-based or functional assay
HA of H3N2 A/HK/1/68 [9] = target: T1, HA of H3N2 A/HK/1/68; assay: BLI steady state
[10] = target: HA of H7N7 A/Common Teal/MPF139/07 (influenza A virus); assay: cell-based or functional assay
HA of H7N9 A/Anhui/1/13 = HA of H7N9 A/Anhui/1/13 (influenza A virus); assay: cell-based or functional assay
[11] = target: HA of H7N9 A/Shanghai/1/13 (influenza A virus); assay: cell-based or functional assay
[12] = target: HA of H7N9 A/Shanghai/2/13 (influenza A virus); assay: cell-based or functional assay
[13] = target: HA of H10N8 A/Jiangxi/346/2013 (influenza A virus); assay: cell-based or functional assay
[14] = target: HA of H10N3 A/Common Teal/MPH11/08 (influenza A virus); assay: cell-based or functional assay
[15] = target: HA of H10N9 A/Northern Shoveler/MPE2531/08 (influenza A virus); assay: cell-based or functional assay
[16] = target: HA of H1N1 A/Puerto Rico/8/34-MA (influenza A virus); assay: cell-based or functional assay
[17] = target: HA of H5N1 A/PR8 H5N1 HK97 (influenza A virus); assay: cell-based or functional assay
HA of H3N2 A/HK/1/68-MA [18] = target: HA of H3N2 A/HK/1/68-MA (influenza A virus); assay: cell-based or functional assay; remark: listed apart in the source
HA of H3N2 A/HK/1/68 [19] = target: T1, HA of H3N2 A/HK/1/68; assay: cell-based or functional assay
[20] = target: T2, HA of H7N7 A/Netherlands/219/2003 (influenza A virus, UniProt P36346 19-563); assay: cell-based or functional assay
[21] = target: HA of H2N2 A/Guiyang/1/57 (influenza A virus); assay: cell-based or functional assay
[22] = target: HA of H3N2 A/Panama/2007/99 (influenza A virus); assay: cell-based or functional assay; remark: listed apart in the source
[23] = target: HA of H4 A/WF/HK/MPA892/06 (influenza A virus); assay: cell-based or functional assay; remark: listed apart in the source
HA of H7N7 A/PR8 H7N7-NY [24] = target: HA of H7N7 A/PR8 H7N7-NY (influenza A virus); assay: cell-based or functional assay; remark: listed apart in the source
[25] = target: HA of H10N7 A/Chick/Germany/N/49 (influenza A virus); assay: cell-based or functional assay; remark: listed apart in the source
[26] = target: HA of H1N1 A/Mississippi/03/01 274H (influenza A virus); assay: cell-based or functional assay
[27] = target: HA of H1N1 A/Solomon Islands/3/2006 (IVR 145) (influenza A virus); assay: cell-based or functional assay
HA of H1N1 A/WSN/33 = HA of H1N1 A/WSN/33 (influenza A virus, UniProt P03454 18-565); assay: cell-based or functional assay
HA of H1N1 A/HK/54/98 = HA of H1N1 A/HK/54/98 (influenza A virus); assay: cell-based or functional assay
[28] = target: HA of H1N1 A/Christchurch/16/10 (influenza A virus); assay: cell-based or functional assay
[29] = target: HA of H1N2 A/Env/HK/MPU3156/05 (influenza A virus); assay: cell-based or functional assay
[30] = target: HA of H5N1 A/Indonesia/5/05 (influenza A virus); assay: cell-based or functional assay
[31] = target: HA of H5N2 A/Eurasian Wigeon/MPF461/07 (influenza A virus); assay: cell-based or functional assay
[32] = target: HA of H5N2 A/Eurasian Wigeon/HK/MPF333/07 (influenza A virus); assay: cell-based or functional assay
[33] = target: HA of H2N2 A/AnnArbor/23/57 (influenza A virus); assay: cell-based or functional assay
[34] = target: HA of H2N2 A/Env/HK/MPU3156/05 (influenza A virus); assay: cell-based or functional assay
[35] = target: HA of H6N1 A/Eurasian Wigeon/MPG1884/09 (influenza A virus); assay: cell-based or functional assay
[36] = target: HA of H6N1 A/Taiwan/2/2013 (influenza A virus); assay: cell-based or functional assay
[37] = target: HA of H6N8 A/Eurasian Wigeon/MPD411/07 (influenza A virus); assay: cell-based or functional assay
[38] = target: HA of H11N9 A/Northern Pintail/MPC2085/07 (influenza A virus); assay: cell-based or functional assay
[39] = target: HA of H9N2 A/Ck/HK/SSP176/09 (influenza A virus); assay: cell-based or functional assay
[40] = target: HA of H9N2 A/Great Cormorant/MP2934/04 (influenza A virus); assay: cell-based or functional assay
[41] = target: HA of H9N2 A/HK/466419/09 (influenza A virus); assay: cell-based or functional assay
[42] = target: HA of H8N4 A/Eurasian Wigeon/MPH571/08 (influenza A virus); assay: cell-based or functional assay
[43] = target: HA of H8N2 A/Env/MPJ1258/09 (influenza A virus); assay: cell-based or functional assay
[44] = target: HA of H12N5 A/Env/MPK659/09 (influenza A virus); assay: cell-based or functional assay
HA of H3N2 A/Fukui/45/04 = HA of H3N2 A/Fukui/45/04 (influenza A virus); assay: cell-based or functional assay
HA of H3N2 A/Aichi/2/68 = HA of H3N2 A/Aichi/2/68 (influenza A virus, UniProt P03437 17-566); assay: cell-based or functional assay
[45] = target: HA of H3N2 A/Hiroshima/52/05 (influenza A virus); assay: cell-based or functional assay
[46] = target: HA of H3N2 A/Johannesburg/33/94 (influenza A virus); assay: cell-based or functional assay
HA of H3N2 A/Perth/16/09 = HA of H3N2 A/Perth/16/09 (influenza A virus); assay: cell-based or functional assay
[47] = target: HA of H3N2 A/Victoria/210/09 (influenza A virus); assay: cell-based or functional assay
HA of H3N2 A/HK/1174/99 = HA of H3N2 A/HK/1174/99 (influenza A virus); assay: cell-based or functional assay
[48] = target: HA of H4N1 A/Northern Pintail/MPB1368/06 (influenza A virus); assay: cell-based or functional assay
[49] = target: HA of H4N6 A/Great Cormorant/MPB1683/06 (influenza A virus); assay: cell-based or functional assay
[50] = target: HA of H14N5 A/Mallard/Astrakhan/263/1982 (influenza A virus); assay: cell-based or functional assay
[51] = target: HA of H7N7 A/Northern Shoveler/MPF518/08 (influenza A virus); assay: cell-based or functional assay
[52] = target: T2, HA of H7N7 A/Netherlands/219/2003; assay: AlphaLISA competition vs CR9114
[53] = target: HA of H1N1 A/Brisbane/59/07 (influenza A virus); assay: cell-based or functional assay

B1: SD1035 (VHH)
VHH: EVQLVESGGGLVQAGGTLRLSCAASGSAVSISRMAWYRQAPGKQRELVADIFSGGGTNYADSVKGRFTISRDNAKNTVDLQMNSLKPEDTAVYYCSARSAVAAIHWDQYDYWGQGTQVTVSS
notes: llama sdAb
HA of H3N2 A/HK/1/68 [1]
  binding result: no binding (tested: HA 20 µg/mL)
[2]
  VNA titer: > 1000 nM
[3]
  VNA titer: > 1000 nM

B2: SD1016 (VHH)
VHH: EVQLVESGGGLVQAGGSLRLSCVASGMFFGIAAMGWYRQAPGKQRELVANITSDFSTNYADSVKDRFTISRDNAENTVYLQMNSLKPEDTAVYYCAADSLGTGWRHYYYWGQGTQVTVSS
notes: llama sdAb
HA of H3N2 A/HK/1/68 [1]
  binding result: no binding (tested: HA 20 µg/mL)
HA of H3N2 A/HK/1/68-MA [4]
  VNA titer: > 1000 nM
[5]
  VNA titer: > 1000 nM
[6]
  VNA titer: > 1000 nM
HA of H7N7 A/PR8 H7N7-NY [7]
  VNA titer: > 1000 nM
[8]
  VNA titer: > 1000 nM

B3: SD1036 (VHH)
VHH: EVQLVESGGGLVQAGGSLKLSCAASGRTYAMGWFRQAPGKEREFVAHINALGTRTYYSDSVKGRFTISRDNAKNTEYLEMNNLKPEDTAVYYCTAQGQWRAAPVAVAAEYEFWGQGTQVTVSS
notes: llama sdAb
HA of H3N2 A/HK/1/68 [9]
  Kd: 2 nM
[10]
  VNA titer: 18.3 nM
HA of H7N9 A/Anhui/1/13
  VNA titer: 65.9 nM
[11]
  VNA titer: 101 nM
[12]
  VNA titer: 33 nM
[13]
  VNA titer: 83.9 nM
[14]
  VNA titer: 28.9 nM
[15]
  VNA titer: 19.9 nM
[16]
  VNA titer: > 1000 nM
[17]
  VNA titer: > 1000 nM
HA of H3N2 A/HK/1/68-MA [18]
  VNA titer: 73.2 nM
HA of H3N2 A/HK/1/68 [19]
  VNA titer: 115 nM
[20]
  VNA titer: 28.9 nM
[21]
  VNA titer: > 1000 nM
[22]
  VNA titer: > 1000 nM
[23]
  VNA titer: 40.4 nM
HA of H7N7 A/PR8 H7N7-NY [24]
  VNA titer: 8.8 nM
[25]
  VNA titer: 22.2 nM
[26]
  VNA titer: > 1000 nM
[27]
  VNA titer: > 1000 nM
HA of H1N1 A/WSN/33
  VNA titer: > 1000 nM
HA of H1N1 A/HK/54/98
  VNA titer: > 1000 nM
[28]
  VNA titer: > 1000 nM
[29]
  VNA titer: > 1000 nM
[30]
  VNA titer: > 1000 nM
[31]
  VNA titer: > 1000 nM
[32]
  VNA titer: > 1000 nM
[33]
  VNA titer: > 1000 nM
[34]
  VNA titer: > 1000 nM
[35]
  VNA titer: > 1000 nM
[36]
  VNA titer: > 1000 nM
[37]
  VNA titer: > 1000 nM
[38]
  VNA titer: > 1000 nM
[39]
  VNA titer: > 1000 nM
[40]
  VNA titer: 677 nM
[41]
  VNA titer: > 1000 nM
[42]
  VNA titer: > 1000 nM
[43]
  VNA titer: > 1000 nM
[44]
  VNA titer: > 1000 nM
HA of H3N2 A/Fukui/45/04
  VNA titer: > 1000 nM
HA of H3N2 A/Aichi/2/68
  VNA titer: 6.5 nM
[45]
  VNA titer: > 1000 nM
[46]
  VNA titer: 601 nM
HA of H3N2 A/Perth/16/09
  VNA titer: 76.4 nM
[47]
  VNA titer: 540 nM
HA of H3N2 A/HK/1174/99
  VNA titer: > 1000 nM
[48]
  VNA titer: 80.7 nM
[49]
  VNA titer: 44.5 nM
[50]
  VNA titer: 16.2 nM
[51]
  VNA titer: 44.7 nM
[52]
  pIC50: 9.3

B4: SD1047 (VHH)
VHH: EVQLVESGGGLVQAGGSLRISCAASGRTYAMAWFRQAPGKEREFVAHINALGTRTYYSDSVKDRFTISRDNAKNTEYLQMNSLKPEDTAVYYCVAGGQWRAAPVAAAESYDFWGQGTQVTVSS
[16]
  VNA titer: > 1000 nM
HA of H3N2 A/HK/1/68-MA [18]
  VNA titer: > 1000 nM
[53]
  VNA titer: > 1000 nM
